The assay addresses PY-NLS mutants (R206W/Q/G, P209L, and Y210C). The assay can be described thus: co-IP.

In turn, “Kapβ2, endogenous in HEK293T cells (from UniProt Q92973 1-898) (receptor)” gave a reduction in Kapβ2 interaction against WT of 50 to 75%.

The values above are taken from publication doi:10.1101/2022.03.17.484791.
